Numbered stars: 1 amine (or outer) side, 2 acyl side, 3 side chain; on linkers, the order of the positions; unused ones are H or OH. Bridge positions count the residues as written; N and C are the ends. Square brackets hold non-standard residues; d marks the D form. * marks the point of attachment. KCOpipzaa = N6-(4-(carboxymethyl)piperazine-1-carbonyl)-L-lysine, O=C(NCCCC[C@H](N[*:1])C(=O)[*:2])N1CCN(CC(=O)[*:3])CC1; X8 = 4‑(carboxymethyl)piperazine‑1‑carbonyl, O=C(O)CN1CCN(C(=O)*)CC1; Phe(4-COOH) = N[C@@H](Cc1ccc(C(=O)O)cc1)C(=O)O; Bip = N[C@@H](Cc1ccc(-c2ccccc2)cc1)C(=O)O; Phe(4-F) = N[C@@H](Cc1ccc(F)cc1)C(=O)O; 4Pal = N[C@@H](Cc1ccncc1)C(=O)O; Cit = NC(=O)NCCC[C@H](N)C(=O)O
Tests used:
[1] = molecular target: T1, BMP7 (Homo sapiens, UniProt P18075); experiment: BMP7 signal transduction inhibitory activity: SMAD1 phosphorylation by BMP7 stimulus, A549 cells; type: cell-based; conditions: inhibition of SMAD1 phosphorylation by BMP7 stimulus, AlphaLISA, A549 cells; class by peptide concentration zone
T1 sequence (P18075 293-431): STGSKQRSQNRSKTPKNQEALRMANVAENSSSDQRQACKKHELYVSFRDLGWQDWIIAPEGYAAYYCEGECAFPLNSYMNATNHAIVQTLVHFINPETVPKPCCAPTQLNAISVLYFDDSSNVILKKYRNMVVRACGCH
Method in brief: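 Inhibition was measured as loss of BMP7-induced SMAD1 phosphorylation, using 10 nM BMP7 on A549 cells. Most peptides were given as three-concentration sets, such as 1/10/100, 10/100/1,000, 100/300/1,000 or 10/30/90 nM. Others were given as eight 1/3-ratio dilutions from 100 or 1,000 nM, alongside Noggin as control.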

[2] = molecular target: T2, BMP4 (Homo sapiens, UniProt P12644); experiment: BMP4 signal transduction inhibitory activity: SMAD1 phosphorylation by BMP4 stimulus, AlphaLISA SureFire, A549 cells; type: cell-based; conditions: inhibition of SMAD1 phosphorylation by BMP4 stimulus, AlphaLISA, A549 cells; class by peptide concentration zone
T2 sequence (P12644 293-408): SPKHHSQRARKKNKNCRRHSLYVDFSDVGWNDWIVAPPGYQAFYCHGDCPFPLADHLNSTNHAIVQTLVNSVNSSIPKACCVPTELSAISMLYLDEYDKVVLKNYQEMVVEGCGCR

Substance	aLISA BMP7 [1]	aLISA BMP4 [2]
53 (Ac-ERVYVDR[Bip]PYP[Bip]Y[Phe(4-COOH)][Phe(4-COOH)]SCG-NH2; thioether (positions not given here); not fully specified (bridges)) [compound 53]	ND (the inhibitory activity was less than 30% at the maximum concentration evaluated)	A (showed an inhibitory activity of 50% or more in a zone to which the peptide was added to in an amount of 0.2 nM)
57 (Ac-ARVYVDK(X8)[Bip]PYP[Bip]Y[Phe(4-COOH)][Phe(4-COOH)]SCG-NH2; thioether (positions not given here); not fully specified (bridges)) [compound 57]	C (showed less than 50% of inhibitory activity in 10 nM-addition zone and showed 50% or more of inhibitory activity in 100 nM-addition zone)	C (showed an inhibitory activity of less than 50% in 0.2 nM-addition zone and showed an inhibitory activity of 50% or more in 2 nM-addition zone were defined as B or C)
58 (Ac-ARVYVD[Cit][Bip]PYP[Bip]Y[Phe(4-COOH)][Phe(4-COOH)]SCG-NH2; thioether (positions not given here); not fully specified (bridges)) [compound 58]	C (showed less than 50% of inhibitory activity in 10 nM-addition zone and showed 50% or more of inhibitory activity in 100 nM-addition zone)	A (showed an inhibitory activity of 50% or more in a zone to which the peptide was added to in an amount of 0.2 nM)
59 (Ac-AK(X8)VYVDR[Bip]PYP[Bip][Phe(4-F)][Phe(4-COOH)][Phe(4-COOH)]SCG-NH2; thioether (positions not given here); not fully specified (bridges)) [compound 59]	C (showed less than 50% of inhibitory activity in 10 nM-addition zone and showed 50% or more of inhibitory activity in 100 nM-addition zone)	A (showed an inhibitory activity of 50% or more in a zone to which the peptide was added to in an amount of 0.2 nM)
62 (Ac-A[KCOpipzaa]VYVD[KCOpipzaa][Bip]PYP[Bip][4Pal][Phe(4-COOH)][Phe(4-COOH)]SCG-NH2; thioether (positions not given here); not fully specified (bridges)) [compound 62]	ND (the inhibitory activity was less than 30% at the maximum concentration evaluated)	D (showed inhibitory activity of less than 50% in 2 nM-addition zone)
63 (Ac-E[KCOpipzaa]VYVDR[Bip]PYP[Bip]Y[Phe(4-COOH)][Phe(4-COOH)]SCG-NH2; thioether (positions not given here); not fully specified (bridges)) [compound 63]	C (showed less than 50% of inhibitory activity in 10 nM-addition zone and showed 50% or more of inhibitory activity in 100 nM-addition zone)	A (showed an inhibitory activity of 50% or more in a zone to which the peptide was added to in an amount of 0.2 nM)
64 (Ac-E[KCOpipzaa]VYVD[KCOpipzaa][Bip]PYP[Bip]Y[Phe(4-COOH)][Phe(4-COOH)]SCG-NH2; thioether (positions not given here); not fully specified (bridges)) [compound 64]	D (showed less than 50% of inhibitory activity in 100 nM-addition zone)	C (showed an inhibitory activity of less than 50% in 0.2 nM-addition zone and showed an inhibitory activity of 50% or more in 2 nM-addition zone were defined as B or C)
65 (Ac-E[KCOpipzaa]VYVDR[Bip]PYP[Bip][Phe(4-F)][Phe(4-COOH)][Phe(4-COOH)]SCG-NH2; thioether (positions not given here); not fully specified (bridges)) [compound 65]	C (showed less than 50% of inhibitory activity in 10 nM-addition zone and showed 50% or more of inhibitory activity in 100 nM-addition zone)	A (showed an inhibitory activity of 50% or more in a zone to which the peptide was added to in an amount of 0.2 nM)
68 ({CH2CO}-E[KCOpipzaa]VYVD[KCOpipzaa][Bip]PYP[Bip][4Pal][Phe(4-COOH)][Phe(4-COOH)]SCG-NH2; thioether N-17; not fully specified) [compound 68]	ND (the inhibitory activity was less than 30% at the maximum concentration evaluated)	D (showed inhibitory activity of less than 50% in 2 nM-addition zone)
70 ({CH2CO}-ARVYVDK[Bip]PYP[Bip]Y[Phe(4-COOH)][Phe(4-COOH)]SCG-NH2; thioether N-17; not fully specified) [compound 70]	C (showed less than 50% of inhibitory activity in 10 nM-addition zone and showed 50% or more of inhibitory activity in 100 nM-addition zone)	A (showed an inhibitory activity of 50% or more in a zone to which the peptide was added to in an amount of 0.2 nM)
71 ({CH2CO}-ERVYVDR[Bip]PYP[Bip][Phe(4-F)][Phe(4-COOH)][Phe(4-COOH)]SCG-NH2; thioether N-17; not fully specified) [compound 71]	C (showed less than 50% of inhibitory activity in 10 nM-addition zone and showed 50% or more of inhibitory activity in 100 nM-addition zone)	A (showed an inhibitory activity of 50% or more in a zone to which the peptide was added to in an amount of 0.2 nM)
72 ({CH2CO}-ERVYVDR[Bip]PYP[Bip][Phe(4-F)][Phe(4-COOH)][4Pal]SCG-NH2; thioether N-17; not fully specified) [compound 72]	C (showed less than 50% of inhibitory activity in 10 nM-addition zone and showed 50% or more of inhibitory activity in 100 nM-addition zone)	A (showed an inhibitory activity of 50% or more in a zone to which the peptide was added to in an amount of 0.2 nM)
76 ({CH2CO}-E[KCOpipzaa]VYV[KCOpipzaa][KCOpipzaa][Bip]PYP[Bip][Phe(4-F)][Phe(4-COOH)][4Pal]SCG-NH2; thioether N-17; not fully specified) [compound 76]	C (showed less than 50% of inhibitory activity in 10 nM-addition zone and showed 50% or more of inhibitory activity in 100 nM-addition zone)	C (showed an inhibitory activity of less than 50% in 0.2 nM-addition zone and showed an inhibitory activity of 50% or more in 2 nM-addition zone were defined as B or C)
77 ({CH2CO}-ERVYVDR[Bip][KCOpipzaa]YP[Bip][Phe(4-F)][Phe(4-COOH)][Phe(4-COOH)]SCG-NH2; thioether N-17; not fully specified) [compound 77]	C (showed less than 50% of inhibitory activity in 10 nM-addition zone and showed 50% or more of inhibitory activity in 100 nM-addition zone)	A (showed an inhibitory activity of 50% or more in a zone to which the peptide was added to in an amount of 0.2 nM)
78 ({CH2CO}-ERVYVDR[Bip][KCOpipzaa]YP[Bip][Phe(4-F)][Phe(4-COOH)][4Pal]SCG-NH2; thioether N-17; not fully specified) [compound 78]	C (showed less than 50% of inhibitory activity in 10 nM-addition zone and showed 50% or more of inhibitory activity in 100 nM-addition zone)	A (showed an inhibitory activity of 50% or more in a zone to which the peptide was added to in an amount of 0.2 nM)

— patent US20250361274A1, “PEPTIDE AND PEPTIDE-CONTAINING AGENT” (PEPTIDREAM INC., priority 2022, published 2025)
